T1: MPDZ_10, O75970
T1 sequence (O75970 1624-1722, limits assumed, looked up): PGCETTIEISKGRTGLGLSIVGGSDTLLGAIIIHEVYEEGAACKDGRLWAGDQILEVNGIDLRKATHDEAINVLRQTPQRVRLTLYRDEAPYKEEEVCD

T2: DFNB31_2, Q9P202
T2 sequence (Q9P202 274-371, limits assumed, looked up): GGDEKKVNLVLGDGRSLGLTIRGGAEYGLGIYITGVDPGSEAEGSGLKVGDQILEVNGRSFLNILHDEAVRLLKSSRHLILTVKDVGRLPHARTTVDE

T3: LNX2_2, Q8N448
T3 sequence (Q8N448 334-432, limits assumed, looked up): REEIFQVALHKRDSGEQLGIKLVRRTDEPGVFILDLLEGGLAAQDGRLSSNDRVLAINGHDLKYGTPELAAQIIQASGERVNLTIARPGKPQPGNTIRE

T4: ARHGEF11, O15085
T4 sequence (O15085 42-136, limits assumed, looked up): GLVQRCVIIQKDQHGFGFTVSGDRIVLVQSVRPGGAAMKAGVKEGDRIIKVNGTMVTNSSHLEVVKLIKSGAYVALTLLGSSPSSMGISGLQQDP

T5: NHERF3_3, Q5T2W1
T5 sequence (Q5T2W1 238-333, limits assumed, looked up): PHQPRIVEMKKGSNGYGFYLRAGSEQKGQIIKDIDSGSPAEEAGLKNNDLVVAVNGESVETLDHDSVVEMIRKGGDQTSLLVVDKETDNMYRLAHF

T6: APBA2_2, Q99767
T6 sequence (Q99767 654-744, limits assumed, looked up): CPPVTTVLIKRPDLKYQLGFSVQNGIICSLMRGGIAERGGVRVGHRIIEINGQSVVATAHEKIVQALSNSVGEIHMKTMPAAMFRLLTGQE

T7: LNX2_3, Q8N448
T7 sequence (Q8N448 463-564, limits assumed, looked up): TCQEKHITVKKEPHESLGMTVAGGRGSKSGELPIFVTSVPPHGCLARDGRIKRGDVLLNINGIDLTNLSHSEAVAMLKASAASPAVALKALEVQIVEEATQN

T8: DFNB31_3, Q9P202
T8 sequence (Q9P202 811-907, limits assumed, looked up): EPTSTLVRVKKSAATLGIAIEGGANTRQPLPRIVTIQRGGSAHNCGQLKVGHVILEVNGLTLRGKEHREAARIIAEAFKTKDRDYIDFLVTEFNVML

T9: HTRA3, P83110
T9 sequence (P83110 354-453, limits assumed, looked up): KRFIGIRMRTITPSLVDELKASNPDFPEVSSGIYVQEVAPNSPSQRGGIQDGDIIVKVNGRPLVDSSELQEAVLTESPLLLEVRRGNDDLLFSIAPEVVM


Tests used:
Experiment in all cases: holdup assay
Design in all cases: key: below the threshold = too weak to quantify, mostly under pKd 3.1 to 4
Settings in all cases: plain residues with an end cap or a label only (N-terminal biotin on a linker: ttds)
[1] = target: T1, MPDZ_10, O75970
[2] = target: Inadl_5, Q8NI35
Chain of Inadl_5, Q8NI35 (Q8NI35 673-780): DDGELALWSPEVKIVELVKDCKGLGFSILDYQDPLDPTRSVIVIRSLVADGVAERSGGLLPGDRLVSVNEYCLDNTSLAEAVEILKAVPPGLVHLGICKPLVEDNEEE

[3] = target: GRIP2_5, Q9C0E4
Chain of GRIP2_5, Q9C0E4 (Q9C0E4 544-642): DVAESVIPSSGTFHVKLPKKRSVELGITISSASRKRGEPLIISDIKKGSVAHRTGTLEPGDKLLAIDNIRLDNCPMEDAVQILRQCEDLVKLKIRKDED

[4] = target: DLG1_3, Q12959
Chain of DLG1_3, Q12959 (Q12959 457-571): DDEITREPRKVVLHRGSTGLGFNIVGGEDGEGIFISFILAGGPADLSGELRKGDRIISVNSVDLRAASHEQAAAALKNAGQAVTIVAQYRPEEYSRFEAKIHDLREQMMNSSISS

[5] = target: T2, DFNB31_2, Q9P202
[6] = target: GORASP2, Q9H8Y8
[7] = target: T3, LNX2_2, Q8N448
[8] = target: T4, ARHGEF11, O15085
[9] = target: TJP1_3, Q07157
Chain of TJP1_3, Q07157 (Q07157 416-512): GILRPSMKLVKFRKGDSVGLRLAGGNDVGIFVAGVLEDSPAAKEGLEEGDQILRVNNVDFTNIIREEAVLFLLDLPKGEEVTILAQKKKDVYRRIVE

[10] = target: PICK1, Q9NRD5
Chain of PICK1, Q9NRD5 (Q9NRD5 17-115): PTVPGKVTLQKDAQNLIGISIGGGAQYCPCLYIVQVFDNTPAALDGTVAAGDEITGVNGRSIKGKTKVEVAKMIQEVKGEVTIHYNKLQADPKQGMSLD

[11] = target: Inadl_1, Q8NI35
Chain of Inadl_1, Q8NI35 (Q8NI35 113-229): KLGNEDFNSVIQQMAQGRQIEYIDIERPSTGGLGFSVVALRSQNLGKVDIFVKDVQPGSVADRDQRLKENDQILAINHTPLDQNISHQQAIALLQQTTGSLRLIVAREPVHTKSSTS

[12] = target: SNX27, Q96L92
[13] = target: T5, NHERF3_3, Q5T2W1
[14] = target: GOPC, Q9HD26
[15] = target: T6, APBA2_2, Q99767
[16] = target: T7, LNX2_3, Q8N448
[17] = target: T8, DFNB31_3, Q9P202
[18] = target: Inadl_9, Q8NI35
Chain of Inadl_9, Q8NI35 (Q8NI35 1530-1615): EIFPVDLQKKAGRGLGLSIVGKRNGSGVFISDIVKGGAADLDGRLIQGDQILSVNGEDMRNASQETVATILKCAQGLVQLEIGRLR

[19] = target: Inadl_4, Q8NI35
Chain of Inadl_4, Q8NI35 (Q8NI35 547-651): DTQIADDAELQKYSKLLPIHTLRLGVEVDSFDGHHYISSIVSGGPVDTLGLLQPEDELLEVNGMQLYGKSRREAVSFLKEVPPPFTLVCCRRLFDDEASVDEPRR

[20] = target: GRID2IP_2, A4D2P6
Chain of GRID2IP_2, A4D2P6 (A4D2P6 272-370): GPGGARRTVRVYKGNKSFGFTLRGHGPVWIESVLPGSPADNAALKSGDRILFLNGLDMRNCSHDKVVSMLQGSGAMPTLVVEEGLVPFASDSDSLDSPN

[21] = target: MAST1, Q9Y2H9
Chain of MAST1, Q9Y2H9 (Q9Y2H9 962-1065): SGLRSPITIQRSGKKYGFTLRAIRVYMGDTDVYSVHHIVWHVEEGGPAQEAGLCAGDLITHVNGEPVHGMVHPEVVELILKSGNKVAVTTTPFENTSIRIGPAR

[22] = target: T9, HTRA3, P83110
[23] = target: MAGI1_1, Q96QZ7
Chain of MAGI1_1, Q96QZ7 (Q96QZ7 1-106): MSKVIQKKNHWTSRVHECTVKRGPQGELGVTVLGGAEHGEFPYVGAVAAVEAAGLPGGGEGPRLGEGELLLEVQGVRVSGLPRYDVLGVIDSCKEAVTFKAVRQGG

[24] = target: TJP1_2, Q07157
Chain of TJP1_2, Q07157 (Q07157 181-274): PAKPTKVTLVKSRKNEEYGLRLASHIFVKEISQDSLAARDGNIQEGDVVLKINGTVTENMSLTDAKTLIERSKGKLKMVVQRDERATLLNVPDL

[25] = target: HTRA1, Q92743
Chain of HTRA1, Q92743 (Q92743 360-477): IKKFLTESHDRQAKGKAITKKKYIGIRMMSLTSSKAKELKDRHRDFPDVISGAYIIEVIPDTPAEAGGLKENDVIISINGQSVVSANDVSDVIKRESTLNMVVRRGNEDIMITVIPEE

[26] = target: IL16_3, Q14005
Chain of IL16_3, Q14005 (Q14005 1107-1207): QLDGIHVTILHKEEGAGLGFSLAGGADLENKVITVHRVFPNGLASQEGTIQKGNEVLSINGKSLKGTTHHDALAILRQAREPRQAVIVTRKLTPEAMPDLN

[27] = target: MAGI3_2, Q5TCQ9
Chain of MAGI3_2, Q5TCQ9 (Q5TCQ9 398-503): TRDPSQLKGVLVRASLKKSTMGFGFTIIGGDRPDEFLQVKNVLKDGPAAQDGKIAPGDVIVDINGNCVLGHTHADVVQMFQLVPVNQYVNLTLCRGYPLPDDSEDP

[28] = target: GRIP2_4, Q9C0E4
Chain of GRIP2_4, Q9C0E4 (Q9C0E4 446-548): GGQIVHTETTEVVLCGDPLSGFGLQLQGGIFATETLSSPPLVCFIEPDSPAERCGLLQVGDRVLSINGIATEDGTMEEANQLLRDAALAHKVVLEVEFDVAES

[29] = target: HTRA2, O43464
Chain of HTRA2, O43464 (O43464 355-458): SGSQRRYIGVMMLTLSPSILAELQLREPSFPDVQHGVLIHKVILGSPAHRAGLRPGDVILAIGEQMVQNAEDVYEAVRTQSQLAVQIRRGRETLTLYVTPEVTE

Binder | pKd [1] | pKd [2] | pKd [3] | pKd [4] | pKd [5] | pKd [6] | pKd [7] | pKd [8] | pKd [9] | pKd [10] | pKd [11] | pKd [12] | pKd [13] | pKd [14] | pKd [15] | pKd [16] | pKd [17] | pKd [18] | pKd [19] | pKd [20] | also measured
VDFPPKESSL [ACVR2A, P27037] | below the threshold | below the threshold | below the threshold | 4.11 | 3.46 | 3.87 | below the threshold | 4.17 | below the threshold | below the threshold | below the threshold | 4.38 | below the threshold | 3.45 | below the threshold | below the threshold | below the threshold | below the threshold | below the threshold | 3.48 | pKd [21]: 4.77; pKd [22]: below the threshold; pKd [23]: below the threshold; pKd [24]: below the threshold; pKd [25]: below the threshold; pKd [26]: below the threshold; pKd [27]: 3.3; pKd [28]: below the threshold; pKd [29]: below the threshold
SGSRPSATVV [HPV73-E6, Q82005] | 3.74 | below the threshold | below the threshold | below the threshold | below the threshold | 4.13 | 4.98 | 3.98 | below the threshold | 3.63 | below the threshold | below the threshold | below the threshold | 3.59 | below the threshold | below the threshold | below the threshold | 3.59 | below the threshold | below the threshold | pKd [21]: 3.73; pKd [22]: 3.7; pKd [23]: below the threshold; pKd [24]: below the threshold; pKd [25]: 3.9; pKd [26]: below the threshold; pKd [27]: 4.91; pKd [28]: 3.55; pKd [29]: below the threshold

— article PMC9482650, “Quantitative fragmentomics allow affinity mapping of interactomes” (Nature Communications, 2022)
